Key:
MS2 coat protein [1] = test: apparent KD of MS2 coat protein; designed switch direction (-1 OFF switch, 1 ON switch): 1; higher = weaker reporter binding; conditions: Eterna round: R98
Experimental: (§1)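 RNA-MaP: designed FMN/MS2 RNA switches (84 nt design region) are transcribed on-chip within common flanks and titrated with SNAP-549-labelled MS2 coat protein (about 1-3000 nM) in 100 mM Tris pH 7.5, 80 mM KCl, 4 mM MgCl2, without or with 200 uM FMN. Median apparent KD per design; activation ratio = KD,OFF / KD,ON.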

MS2 coat protein [2] = test: apparent KD of MS2 coat protein; designed switch direction (-1 OFF switch, 1 ON switch): -1; higher = weaker reporter binding; conditions: Eterna round: R98
Experimental: as §1

CCCUUCAGAAGAGGGACAUGAGGAUCACCCAUGUAGGCUGCACAGGAUAUCGAUCGGAGGCGGUACGAGAAGGGUGACGUCAUU [Soedgege]
apparent KD of MS2 coat protein (MS2 coat protein [1]; input ligand: FMN 200 uM): 168 nM
apparent KD of MS2 coat protein (MS2 coat protein [1]; input ligand: none): 79.3 nM

GCCAUCGCAUGAGGAUAUGGACAGCUUUGCUGUCCAGAAGGCAUGUCAUAAGACAUGAGGAUCACCCAUGUAGUUAAGAUGGCA [Mat - Same State NG 1 - JL Mod - D15]
apparent KD of MS2 coat protein (MS2 coat protein [1]; input ligand: FMN 200 uM): 74.1 nM
apparent KD of MS2 coat protein (MS2 coat protein [1]; input ligand: none): 1070 nM

ACAUGAGGAUCACCCAUGUAAUAACAUCGGAUUGUCGAAGGUGAGGAUAUCGUACUGGAAUAUUUCGAGAAGGCACAUUCUCCU [JR_SSNG3_Sub075]
apparent KD of MS2 coat protein (MS2 coat protein [1]; input ligand: FMN 200 uM): 25.9 nM
apparent KD of MS2 coat protein (MS2 coat protein [1]; input ligand: none): 23.5 nM

UAUAUAAUUAAGAGCUGGACCAAAACAUGAGGAUCACCCAUGUAGGAUAUCAGCACGAUAAGUGCUGAGAAGGACUACCAGCUC [Denovo 83]
apparent KD of MS2 coat protein (MS2 coat protein [2]; input ligand: FMN 200 uM): 22.4 nM
apparent KD of MS2 coat protein (MS2 coat protein [2]; input ligand: none): 18.5 nM

GUAGCAUACCGAGGAUAUUCAGAGAAUAAAUAAACAUGAGGAUCACCCAUGUGGCGAAAGCCUAGGGAGAAGGCGGAAUGCUAC [salish99_SSNG2_r2_208]
apparent KD of MS2 coat protein (MS2 coat protein [1]; input ligand: FMN 200 uM): 25.3 nM
apparent KD of MS2 coat protein (MS2 coat protein [1]; input ligand: none): 81.9 nM

GUAGCAUACCGAGGAUAUUCAUAUAAUAAAUAAACAUGAGGAUCACCCAUGUGGCGAAAGCCUAGGGAGAAGGCGGAAUGCUAG [salish99_SSNG2_r2_003]
apparent KD of MS2 coat protein (MS2 coat protein [1]; input ligand: FMN 200 uM): 22.1 nM
apparent KD of MS2 coat protein (MS2 coat protein [1]; input ligand: none): 248 nM

GGCGAUCAGGCUAACAUGAGGAUCACCCAUGUGGACUCAUGGUAGGAUAUGCUGUACAAAGUACAGCAGAAGGGCCGGAGAGCC [Mat - Same State NG 3 - JL Mod - D2]
apparent KD of MS2 coat protein (MS2 coat protein [1]; input ligand: FMN 200 uM): 144 nM
apparent KD of MS2 coat protein (MS2 coat protein [1]; input ligand: none): 152 nM

UGUUGUUACGCAGGAUAUUGCCAACAGGCAGUAGGAUAUCCGAAAGGAGAAGGACCGCCAACAGGCGAGAAGGGCGGGUUAACA [pwkr exNG2 2xF7 2FMN.10 scored 83]
apparent KD of MS2 coat protein (MS2 coat protein [2]; input ligand: FMN 200 uM): 35 nM
apparent KD of MS2 coat protein (MS2 coat protein [2]; input ligand: none): 57.9 nM

AUUAAUGGGUGAGGAUAUGCACAGGAUCACCGUGUAGAAGGCAUCAGGUAGAAGGUGCAGAGGAUCACCCUGUAAGGAUAUAUC [pwkr2 ssNG1 DX.13]
apparent KD of MS2 coat protein (MS2 coat protein [1]; input ligand: FMN 200 uM): 858 nM
apparent KD of MS2 coat protein (MS2 coat protein [1]; input ligand: none): 998 nM

UCACAGUGUCGUUAUCCGUAGCGAACAUGAGGAUCACCCAUGUAGGAUAUGUUAUUAAACUAAUAACAGAAGGACGUUAGUCGG [Ex NG3 #21]
apparent KD of MS2 coat protein (MS2 coat protein [2]; input ligand: FMN 200 uM): 94.3 nM
apparent KD of MS2 coat protein (MS2 coat protein [2]; input ligand: none): 36 nM

GUAGCAUACCGAGGAUAUUCAUAUAAUAAAUAAACAUGAGGAUCACCCAUGUGGCGAAAGCCUAGGGAGAAGGCGGAAUGCUAU [salish99_SSNG2_r2_110]
apparent KD of MS2 coat protein (MS2 coat protein [1]; input ligand: FMN 200 uM): 24.2 nM
apparent KD of MS2 coat protein (MS2 coat protein [1]; input ligand: none): 171 nM

CCAUACAUGAGGAUCACCCAUGACAUGAGGAUCACCCAUGUGCAGGAUAUACGUGAUAUAAUAAAGUAGAAGGGCAGACCAAAA [LRO002_Exclusion NG 3]
apparent KD of MS2 coat protein (MS2 coat protein [2]; input ligand: FMN 200 uM): 87.4 nM
apparent KD of MS2 coat protein (MS2 coat protein [2]; input ligand: none): 74.2 nM

UAUAUAAUAAGAGCUGGAACUCAAACAUGAGGAUCACCCAUGUAGGAUAUCAGCACGAUAAGUGCUGAGAAGGACAACCAGCUC [Denovo 75]
apparent KD of MS2 coat protein (MS2 coat protein [2]; input ligand: FMN 200 uM): 21.2 nM
apparent KD of MS2 coat protein (MS2 coat protein [2]; input ligand: none): 17.6 nM

CCGUGACACGAAGGAUAUGUGGGUGGUAGUCUGUGCUCCGCCUACAUGAGGAUCACCCAUGUAUCACAGAAGGUCGGACGUCAA [Zaaerzaza]
apparent KD of MS2 coat protein (MS2 coat protein [1]; input ligand: FMN 200 uM): 71.2 nM
apparent KD of MS2 coat protein (MS2 coat protein [1]; input ligand: none): 51.3 nM

AUAGCAUACCGAGGAUAUUCAUAUAAUAAAUAAACAUGAGGAUCACCCAUGUGGCGAAAGCCUAGGGAGAAGGCGGAAUGCUAG [salish99_SSNG2_r2_101]
apparent KD of MS2 coat protein (MS2 coat protein [1]; input ligand: FMN 200 uM): 29.9 nM
apparent KD of MS2 coat protein (MS2 coat protein [1]; input ligand: none): 237 nM

AACAGCGUAGAUAAUAAUGAUUACAUGAGGAUCACCCAUGUAUAGGAUAUGCAGUGGAAUACACUGCAGAAGGAUACAUCGCUG [Exclusion NG 3/18-B1]
apparent KD of MS2 coat protein (MS2 coat protein [2]; input ligand: FMN 200 uM): 33 nM
apparent KD of MS2 coat protein (MS2 coat protein [2]; input ligand: none): 17.5 nM

CUAAUUUAUUGAGGAUAUGCACAGGAUCACCGUGUAGAAGGCAUCAGGGAGAAGGUGCAGAGGAUCACCCUGUAAGGAUAUCAA [pwkr2 ssNG1 DX.3]
apparent KD of MS2 coat protein (MS2 coat protein [1]; input ligand: FMN 200 uM): 105 nM
apparent KD of MS2 coat protein (MS2 coat protein [1]; input ligand: none): 231 nM

GCACUCAAGUUAGGAUAUGGAUCGGAAAACGAUCCAGAAGGAACAUGGGAACAUGAGGAUCACCCAUGUUCCAGAAACGAGUGC [SameSame 1 - Jieux - Same State NG 1]
apparent KD of MS2 coat protein (MS2 coat protein [1]; input ligand: FMN 200 uM): 188 nM
apparent KD of MS2 coat protein (MS2 coat protein [1]; input ligand: none): 733 nM
